According to PMC7468209, “The Nucleoid Occlusion Protein SlmA Binds to Lipid Membranes” (mBio, 2020):

Molecular target: the molecule itself
Test: AUC; sedimentation velocity, 5 uM SlmA without SBS, working buffer (50 mM Tris-HCl pH 7.5, 5 mM MgCl2) with 100, 300 or 500 mM KCl, 48,000 rpm, 20 C, absorbance at 230 nm, c(s) in SEDFIT

B1: SlmA (natural protein, E. coli, UniProt P0C093 1-198, looked up)
chain: MAEKQTAKRNRREEILQSLALMLESSDGSQRITTAKLAASVGVSEAALYRHFPSKTRMFDSLIEFIEDSLITRINLILKDEKDTTARLRLIVLLLLGFGERNPGLTRILTGHALMFEQDRLQGRINQLFERIEAQLRQVLREKRMREGEGYTTDETLLASQILAFCEGMLSRFVRSEFKYRPTDDFDARWPLIAAQLQ
modifications: Alexa Fluor 488 on amino groups (0.3-0.6 mol dye per mol protein), only in the tracer fraction (1 uM of 5 uM) of the microdroplet experiments; unlabelled in the sedimentation velocity experiments
notes: SlmA, nucleoid occlusion protein of Escherichia coli; also called nucleoid occlusion protein SlmA; nucleoid occlusion factor SlmA
stoichiometry N: 2
